Measurements from patent publication US9458437B2, “Neuroprotective peptides that inhibit interaction between palmitoyl acyl transferase zinc-finger DHHC type containing 17 (zD17) and c-jun N-terminal kinase (JNK)” (The University of British Columbia, priority 2011, dated 2016).

Experiments:
[1] = biological target: T1, JNK2 (Rattus norvegicus, UniProt P49186); assay: kinase assay (KA) on JNK2 immunoprecipitated from cell lysates; assay type: cell-based; conditions: for JNK2 activity normalized to 0 h: NMDA + NIMoE
T1 construct: JNK is immunoprecipitated from the cell lysate; endogenous in cells; host or cells: rat primary neuronal cultures; JNK2 immunoprecipitated from lysate
Protocol: JNK activity was measured with an in vitro kinase assay as described elsewhere (see, for e.g.: Khatlani et al., 2007). Briefly, cell lysates were prepared and JNK was immunoprecipitated with specific antibodies. The immnoprecipitates were then resuspended in 1× kinase buffer (Cell Signaling Technology™) supplemented with 200 μM ATP and 250 μg/ml GST-c-jun (1-89), and incubated at 30° C. for 30 min. Reactions were terminated by the addition of SDS-PAGE sample buffer. Phosphorylated c-jun was resolved by SDS-PAGE and detected with anti-p-c-jun.

[2] = biological target: T2, zD17-JNK2 interaction (Rattus norvegicus, UniProt P49186); assay: co-immunoprecipitation of zD17 with JNK2 in neuronal cultures; assay type: cell-based; conditions: NMDA
T2 construct: endogenous in cells; host or cells: primary cortical neurons of embryonic Wistar rat
Protocol: All animal experiments were approved by the Animal Care Committee of the University of British Columbia. Primary cortical cultures were prepared from Wistar rat (UBC Animal Care Centre, Vancouver, BC, Canada) brains at embryonic days 18-19. Cultures were maintained in Neurobasal medium supplemented with B27 and 0.5 mM glutamax (Invitrogen™) as described previously (Yang et al., 2009).
(§1) The protocols for protein extraction have been described previously (Yang et al., 2009). For co-immunoprecipitation, cultured cells were washed with ice-cold PBS followed by incubation with 0.5 ml Gentle Lysis Buffer (GLB) containing 25 mM Tris-HCl (pH 7.4), 2 mM EDTA, 1 mM EGTA, 10 mM NaCl, 0.5% Triton X-100 and 10% Glycerol supplemented with the Complete Protease Inhibitor Tablets (Roche Applied Science™, Indianapolis, Ind., USA) and 1 mM PMSF. Total protein concentration was determined with the BioRad™ Protein Assay kit. Lysates were first precleaned by incubating with Protein A-Sepharose beads (Roche Applied Science™) for 1 h at 4° C., followed by incubation with indicated antibodies (>16 h at 4° C.) and protein A Sepharose bead (2 h at 4° C.). Lysates of rat brain tissues were precleaned with IgG and protein A-beads. Immunoprecipitates were washed three times with GLB buffer; boiled in 2× loading buffer with 1 mM dithiothreitol (DTT) for 3 min; and analyzed with SDS-PAGE as described previously (Yang et al., 2009). The relative intensities of the bands on immunoblots were analyzed and quantified using Image J™ (NIH).

[3] = system: middle cerebral artery occlusion (MCAo); assay: transient MCAo in SD rats, neurological scores; assay type: in vivo, Sprague-Dawley rat
Protocol: Adult male Sprague-Dawley (SD) rats weighing 250-290 g were employed for transient middle cerebral artery occlusion. Rats were anaesthetized with 5% isofluorane and maintained with 2% isofluorane in 70% N2O and 30% O2 using a face mask. 5 mg/kg ketoprofen was given pre-surgery to block pain. Rectal temperature was maintained at 37° C. during surgery with a homeothermic blanket system (Harvard Apparatus™, Holliston, Mass.). The scalp was incised at the midline and the skull was exposed. The skull was thinned with a dental drill at a region ipsilateral to the expected ischemia zone (2 mm posterior and 5 mm lateral from the bregma). […]
Peptides were synthesized by PepMetric Technologies™ or GL Biochem™ (Shanghai, China). […] Injections of NIMoEscr and NIMoEsh were made, brain damage was assessed and functional evaluations performed in a double-blind manner To examine the delivery of the peptide into the brain, 5 mg/kg FITC-labelled NIMoE or only saline was intravenously injected 1 h before perfusion. […] After rapid freezing in Tissue-Tek™ embedding medium (Sakura™, Torrance, Calif.) on dry ice, 20 μm sections were cut on a cryostat (Leica™ CM3050, Ontario, Canada) and examined for FITC fluorescence by a laser microscopy (Zeiss™, Axiovert 200). […]

[4] = biological target: zD17-JNK3 interaction (Rattus norvegicus, UniProt P49187); assay: zD17-JNK3 interaction in the injured hemisphere after MCAo; assay type: in vivo, Sprague-Dawley rat; design: Lysates of rat brain tissues were precleaned with IgG and protein A-beads; from tissue; host or cells: brain (injured left hemisphere) of adult male Sprague-Dawley rats; conditions: single intravenous injection 30 min before MCAo
Protocol: as §1, with “Lysates were first precleaned by incubating with Protein A-Sepharose beads (Roche Applied Science™) for 1 h at 4° C., followed by incubation with indicated antibodies (>16 h at 4° C.) and protein A Sepharose bead (2 h at 4° C.). Lysates of rat brain tissues were precleaned with IgG and protein A-beads.” left out, “(NIH). […]” for “(NIH).”
Peptides were synthesized by PepMetric Technologies™ or GL Biochem™ (Shanghai, China). […] Injections of NIMoEscr and NIMoEsh were made, brain damage was assessed and functional evaluations performed in a double-blind manner To examine the delivery of the peptide into the brain, 5 mg/kg FITC-labelled NIMoE or only saline was intravenously injected 1 h before perfusion. […]

Sequence of zD17-JNK3 interaction (P49187 whole entry): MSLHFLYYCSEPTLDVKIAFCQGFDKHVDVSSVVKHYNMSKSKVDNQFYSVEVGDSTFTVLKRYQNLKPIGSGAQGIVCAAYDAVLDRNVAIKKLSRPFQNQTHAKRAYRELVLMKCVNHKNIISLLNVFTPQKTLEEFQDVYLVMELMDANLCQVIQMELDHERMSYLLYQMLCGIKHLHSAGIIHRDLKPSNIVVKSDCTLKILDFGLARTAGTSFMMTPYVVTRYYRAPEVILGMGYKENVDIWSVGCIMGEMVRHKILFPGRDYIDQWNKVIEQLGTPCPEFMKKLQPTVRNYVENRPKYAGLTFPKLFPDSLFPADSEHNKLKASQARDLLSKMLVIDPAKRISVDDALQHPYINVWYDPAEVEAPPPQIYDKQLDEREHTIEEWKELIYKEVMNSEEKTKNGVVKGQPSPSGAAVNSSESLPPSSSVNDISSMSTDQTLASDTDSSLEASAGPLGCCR

For “MTPLMWAAYRTHSVDPTRLL (listed as Homo sapiens) [NIMoE, peptide comprising motif-E of zD17, fused to the cell-membrane transduction domain of HIV-1 Tat for cell experiments]”, the “JNK2 activity normalized to 0 h” value ([1]; 0.5 h) was 103.7±5.0%, the “JNK2 activity normalized to 0 h” value ([1]; 1 h) was 90.9±10.9% and the “enhancement of JNK2 activity” value ([1]; NMDA, neuronal cultures) was “eliminated the enhancement”. For the same sequence, the “enhancement of the JNK2-zD17 interaction” value [2] was “eliminated the enhancement”.
With “WAAYRTHSVD (listed as Homo sapiens) [NIMoEsh, shorter 10mer of NIMoE, primarily the loop region of motif-E (zD17 196-205)]” the “behavioural deficits evaluated with neurological scores” value ([3]; NIMoEsh administration, MCAo rats) was “substantially reduced”, the “duration of improvement of behavioural performance” value ([3]; injected 2 h post-surgery, double-blinded) was “persisted over 14 days” and the “enhancement of the zD17-JNK3 interaction after MCAo” value [4] was “effectively attenuated”.
